This is an account of results in the supplement of paper PMC10567573.

B1: KRT18 (parent)
chain: KSQDLAKIMADIRAQYDELARKNR
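Further: lentivirally expressed fusions sorted by FACS into six bins by GFP to DsRed ratio, PSI derived from sequencing read proportions per bin multiplied by bin number.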

In this data set the parent is B1. Description: protein stability index of a GFP-peptide fusion (GPS, HEK-293T) (PSI 1-6); higher = more stable. As to conditions: c terminus: a fixed tail appended.
Turning to KSQDLAKHMADIRAQYDELARKNR, the protein stability index turned out to be 3.8.
The same measure for KSQDLAKIMANIRAQYDELARKNR: 2.84; for KSQDLAKIMAQIRAQYDELARKNR: 2.96; for KSQDLAKIMAHIRAQYDELARKNR: 2.71.
With KSQDLAKIMATIRAQYDELARKNR the figure was 2.02.
With KSQDLAKIMAWIRAQYDELARKNR the figure was 1.88.
With KSQDLAKIMACIRAQYDELARKNR, the protein stability index came out at 1.73.
For KSQDLAKIMAEIRAQYDELARKNR, the protein stability index was 2.14.
On to KSQDLAKIMAVIRAQYDELARKNR, for which the protein stability index was 2.14.
The same measure for KSQDLAKIMASIRAQYDELARKNR: 2.21; for KSQDLAKIMARIRAQYDELARKNR: 2.85.
The same measure for KSQDLAKIMALIRAQYDELARKNR: 1.52.
As to KSQDLAKIMAMIRAQYDELARKNR, the protein stability index amounted to 2.02.
The same measure for KSQDLAKIMAGIRAQYDELARKNR: 2.12.
As to KSQDLAKIMAKIRAQYDELARKNR, the protein stability index was found to be 1.8.
With KSQDLAKIMAFIRAQYDELARKNR the figure was 1.8; with KSQDLAKIMAPIRAQYDELARKNR, 3.56; with KSQDLAKIMAYIRAQYDELARKNR, 1.7.
The same measure for KSQDLAKIMAAIRAQYDELARKNR: 1.86; for KSQDLAKIMAIIRAQYDELARKNR: 1.88.
With KSQDTAKIMADIRAQYDELARKNR the figure was 3.51; with KSQDAAKIMADIRAQYDELARKNR, 3.72.
As for KSQDYAKIMADIRAQYDELARKNR, the protein stability index is 2.19.
With KSQDNAKIMADIRAQYDELARKNR the figure was 4.26.
Consider KSQDHAKIMADIRAQYDELARKNR, for which the protein stability index is 3.83.
The same measure for KSQDGAKIMADIRAQYDELARKNR: 4.49; for KSQDEAKIMADIRAQYDELARKNR: 3.94; for KSQDIAKIMADIRAQYDELARKNR: 2.38.
With KSQDDAKIMADIRAQYDELARKNR the figure was 4.16.
With KSQDMAKIMADIRAQYDELARKNR the figure was 2.99; with KSQDQAKIMADIRAQYDELARKNR, 4.06.
In the case of KSQDCAKIMADIRAQYDELARKNR, the protein stability index came out at 3.02.
Take KSQDRAKIMADIRAQYDELARKNR: the protein stability index is 3.83.
With KSQDWAKIMADIRAQYDELARKNR the figure was 2.62; with KSQDFAKIMADIRAQYDELARKNR, 2.45; with KSQDSAKIMADIRAQYDELARKNR, 4.1.
The same measure for KSQDVAKIMADIRAQYDELARKNR: 3.24; for KSQDPAKIMADIRAQYDELARKNR: 3.59.
With KSQDKAKIMADIRAQYDELARKNR, the protein stability index stood at 3.75.
Regarding KSQDLAKIMADIWAQYDELARKNR, the protein stability index was determined as 2.79.
The same measure for KSQDLAKIMADIFAQYDELARKNR: 1.93; for KSQDLAKIMADIIAQYDELARKNR: 1.92.
As for KSQDLAKIMADIKAQYDELARKNR, the protein stability index was 2.92.
With KSQDLAKIMADIAAQYDELARKNR the figure was 2.47; with KSQDLAKIMADIHAQYDELARKNR, 2.53.
In the case of KSQDLAKIMADIYAQYDELARKNR, the protein stability index was determined as 1.75.
The same measure for KSQDLAKIMADIQAQYDELARKNR: 2.85; for KSQDLAKIMADILAQYDELARKNR: 2.3.
The same measure for KSQDLAKIMADIGAQYDELARKNR: 2.8; for KSQDLAKIMADIMAQYDELARKNR: 1.83; for KSQDLAKIMADIVAQYDELARKNR: 2.42.
With KSQDLAKIMADINAQYDELARKNR the figure was 3.62; with KSQDLAKIMADITAQYDELARKNR, 2.78; with KSQDLAKIMADICAQYDELARKNR, 2.06.
As to KSQDLAKIMADIEAQYDELARKNR, the protein stability index stood at 3.75.
With KSQDLAKIMADIPAQYDELARKNR the figure was 4.12; with KSQDLAKIMADISAQYDELARKNR, 2.73; with KSQDLAKIMADIDAQYDELARKNR, 4.35.
The same measure for KSQDLAKIMADIRHQYDELARKNR: 3.16.
With KSQDLAKIMADIRFQYDELARKNR the figure was 2.74; with KSQDLAKIMADIRCQYDELARKNR, 3.05; with KSQDLAKIMADIREQYDELARKNR, 2.89.
Consider KSQDLAKIMADIRGQYDELARKNR, for which the protein stability index came out at 3.39.
As for KSQDLAKIMADIRIQYDELARKNR, the protein stability index was 3.21.
Turning to KSQDLAKIMADIRDQYDELARKNR, the protein stability index stood at 2.8.
The same measure for KSQNLAKIMADIRAQYDELARKNR: 2.6; for KSQVLAKIMADIRAQYDELARKNR: 1.61; for KSQYLAKIMADIRAQYDELARKNR: 1.88.
The same measure for KSQMLAKIMADIRAQYDELARKNR: 1.99; for KSQPLAKIMADIRAQYDELARKNR: 2.68.
With KSQWLAKIMADIRAQYDELARKNR the figure was 2.04; with KSQTLAKIMADIRAQYDELARKNR, 1.76; with KSQRLAKIMADIRAQYDELARKNR, 2.68.
In the case of KSQQLAKIMADIRAQYDELARKNR, the protein stability index turned out to be 2.42.
With KSQSLAKIMADIRAQYDELARKNR the figure was 2.38; with KSQDLAKIKADIRAQYDELARKNR, 3.8.
The same measure for KSQDLAKIFADIRAQYDELARKNR: 2.77; for KSQDLAKIIADIRAQYDELARKNR: 2.03; for KSQDLAKIRADIRAQYDELARKNR: 3.8.
With KSQDLAKIAADIRAQYDELARKNR the figure was 3.71; with KSQDLAKIWADIRAQYDELARKNR, 2.38.
With KSQDLAKIEADIRAQYDELARKNR, the protein stability index amounted to 4.63.
The same measure for KSQDLAKIHADIRAQYDELARKNR: 3.68.
The same measure for KSQDLAKIGADIRAQYDELARKNR: 4.12.
The same measure for KSQDLAKIQADIRAQYDELARKNR: 3.64; for KSQDLAKIVADIRAQYDELARKNR: 2.73; for KSQDLAKINADIRAQYDELARKNR: 4.11.
Take KSQDLAKITADIRAQYDELARKNR: the protein stability index was determined as 3.66.
Take KSQDLAKIYADIRAQYDELARKNR: the protein stability index was 3.08.
The same measure for KSQDLAKICADIRAQYDELARKNR: 3.14; for KSQDLAKILADIRAQYDELARKNR: 2.23.
Regarding KSQDLAKISADIRAQYDELARKNR, the protein stability index is 3.89.
Regarding KSQDLAKIPADIRAQYDELARKNR, the protein stability index came out at 4.67.
The same measure for KSQDLAKIDADIRAQYDELARKNR: 4.72.
